Test results reported in paper PMC9279372.

Molecular target: DEIP1-cYFP fusion protein (Arabidopsis thaliana)
Assay: split reporter (BiFC, NanoBiT); BiFC with vector pBIFCt-2in1-CC in N. benthamiana, Agrobacterium co-infiltration with p19; protoplasts isolated three days after infiltration; YFP and RFP fluorescence by confocal microscopy; 80 protoplasts in two independent experiments for each interaction

DEIP1-cYFP fusion protein (Arabidopsis thaliana), sequence (main, as listed by the source): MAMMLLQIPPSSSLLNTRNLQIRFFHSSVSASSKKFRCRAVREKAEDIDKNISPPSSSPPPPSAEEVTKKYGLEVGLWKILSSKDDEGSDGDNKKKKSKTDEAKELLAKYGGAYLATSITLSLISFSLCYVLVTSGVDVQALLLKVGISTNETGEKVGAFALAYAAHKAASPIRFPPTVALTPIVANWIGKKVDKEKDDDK

percent of transfected protoplasts with YFP fluorescence | Substance
54% | DEIP1-cYFP fusion protein (natural protein)
30% | PetA with the pea RBCS chloroplast transit peptide and C-terminal nYFP (from UniProt P56771 36-320)
28% | PetB with the pea RBCS chloroplast transit peptide and C-terminal nYFP (from UniProt P56773 1-215)
17% | PetD with the pea RBCS chloroplast transit peptide and C-terminal nYFP (from UniProt P56774 1-160)
